Laboratory results from patent US11771829B2, “Systems and methods for liquid injection” (Massachusetts Institute of Technology, priority 2019, dated 2023).

Tests used:
[1] = Liquid formulation stability, two weeks at 40° C. and 75% relative humidity; assay type: physicochemical
Experimental: FIGS. 53A-53B show liquid formulation stability, according to one set of embodiments. Human Insulin (HI) and Semaglutide (Sema) formulations were placed inside of either an L-SOMA or a glass vial apparatus and were subjected to a 40° C. and 75% relative humidity environment for two weeks. (a) Purity loss and (b) high molecular weight protein (HMWP) formation were then measured. (Error=SD, n=3 device replicates, **P<0.01, ***P<0.001).
Additionally, the purity loss for the liquid formulation was higher than the purity loss for the solid formulation we previously reported using in the SOMA system. Optimization of the L-SOMA storage system and loaded liquid formulation will be required to ensure long term stability of the filled drug.

[2] = In vivo swine pharmacokinetics after L-SOMA, subcutaneous or endoscopic gavage dosing
Experimental: In vivo swine experiments were performed in which L-SOMA devices loaded with either an inactivated GLP-1 receptor agonist or fast acting insulin were prepared. L-SOMA dosing experiments were compared to subcutaneous dosing experiments and experiments where swine were dosed with the liquid formulation into the stomach lumen. Using an endoscope, L-SOMA devices were placed into the stomachs of swine and allowed to independently actuate. After 2 hours the devices were removed from the animal. Time 0 corresponds to the time at which the device was placed in the stomach and not the time that the device actuated. The swine dosed were partially fasted but contained a layer of gastric fluid and food approximately the same height as the L-SOMA capsule.
(§1) L-SOMA dosings were compared to subcutaneous or intramuscular dosings as positive controls. Using an endoscope, we placed L-SOMA devices into the stomachs of swine and allowed them to independently actuate. After 2 hours the devices were removed from the animal.
Insulin and GLP-1 generally have limited ability to traverse the stomach lining for systemic uptake when administered without a permeation enhancer or physical permeation enhancing device.

[3] = system: swine stomach; test: Histology of swine stomach after L-SOMA injection; assay type: in vivo; conditions: swine stomach after L-SOMA epinephrine injection
Experimental: as §1

[4] = system: heart rate; conditions: swine; 0.24 mg; both intramuscular injection and L-SOMA groups
Experimental: as §1

[5] = system: blood glucose; test: Blood glucose in swine after dosing; assay type: in vivo
Experimental: as §1

semaglutide
high molecular weight protein formation, L-SOMA system versus glass vial system [1]: greater
purity loss, L-SOMA system versus glass vial system [1]: greater

adalimumab
uptake after endoscopic gavage (negative control) ([2]; in vivo): negligible uptake
drug in blood plasma after dosing ([2]; in vivo, sc): at least 3 days

CNC[C@H](O)c1ccc(O)c(O)c1 [epinephrine]
H&E staining: necrosis or adverse effects elicited by the drug [3]: no evidence of necrosis or adverse effects
heart rate change [4]: abrupt rise
uptake after endoscopic gavage (negative control) ([2]; in vivo): negligible uptake
plasma exposure of drug observed after administration ([2]; swine, in vivo): ≤ 15 min
blood glucose change ([5]; 0.24 mg, both intramuscular injection and L-SOMA groups): abrupt rise

recombinant human insulin: recombinant human insulin, 1 mg liquid dose
high molecular weight protein formation, L-SOMA system versus glass vial system [1]: greater
purity loss, L-SOMA system versus glass vial system [1]: greater
bioavailability, range ([2]; swine, L-SOMA dosed, 1 mg, two hour sampling period, n=8): 25%-81%
bioavailability, range ([2]; swine, dosed subcutaneously, insulin, n=3): 50.8%-66.2%
hypoglycemic onset ([5]; insulin 1 mg, L-SOMA (FIG. 47B) and subcutaneous (FIG. 47F)): immediate hypoglycemic onset
